Results from patent US20030036181A1.

Biological target: macrophage mannose receptor on J774E murine monocyte/macrophage cells (murine) (UniProt Q61830)
Assay: cell-based or functional assay

- Vmax for uptake in the J774E macrophage cell line: 0.52
Substance: Cerezyme (from UniProt P04062 40-536) (enzyme)
